Measurements from patent US20060172374.
Values joined by “and” are separate entries in the source; they are usually repeats but may differ in a detail not shown here. Equal values may be shown once.

Experiments:
[1] = biological target: bovine S100B (Sigma) (UniProt P02638)
[2] = tested on: GST-hMOB1
[3] = tested on: myc-tagged hMOB1
myc-tagged hMOB1, sequence (chain, as listed by the source): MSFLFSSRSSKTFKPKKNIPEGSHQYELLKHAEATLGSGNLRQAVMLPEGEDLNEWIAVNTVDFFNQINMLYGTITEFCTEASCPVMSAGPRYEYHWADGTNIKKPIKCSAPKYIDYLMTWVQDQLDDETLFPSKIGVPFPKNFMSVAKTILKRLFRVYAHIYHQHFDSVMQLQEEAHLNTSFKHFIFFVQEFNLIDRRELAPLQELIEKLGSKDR

bovine S100B (Sigma), sequence (P02638 2-92): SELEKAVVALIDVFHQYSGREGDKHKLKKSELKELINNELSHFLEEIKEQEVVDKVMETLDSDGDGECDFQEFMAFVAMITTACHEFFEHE
GST-NDR2, sequence (chain, as listed by the source): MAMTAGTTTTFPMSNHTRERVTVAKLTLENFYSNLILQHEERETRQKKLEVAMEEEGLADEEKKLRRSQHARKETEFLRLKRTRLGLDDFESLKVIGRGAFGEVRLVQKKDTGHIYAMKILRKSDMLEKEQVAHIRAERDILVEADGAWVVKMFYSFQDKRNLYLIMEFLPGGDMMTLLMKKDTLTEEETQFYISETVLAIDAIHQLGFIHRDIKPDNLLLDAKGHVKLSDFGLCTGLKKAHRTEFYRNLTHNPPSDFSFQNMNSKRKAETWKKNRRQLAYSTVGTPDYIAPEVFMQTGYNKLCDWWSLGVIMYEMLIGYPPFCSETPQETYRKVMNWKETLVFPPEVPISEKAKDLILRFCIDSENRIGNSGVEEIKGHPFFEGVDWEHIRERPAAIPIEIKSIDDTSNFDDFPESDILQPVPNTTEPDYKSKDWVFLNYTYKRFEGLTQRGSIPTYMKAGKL

Row | Substance | autophosphorylation, incorporated 32P (Cerenkov counting), +S100B [1] | specific activity, peptide kinase assay, after autophosphorylation +S100B [1] | also measured
1 | GST-NDR1 S281A | 0.028 | 0.952 | 
2 | GST-NDR1 T74A | 0.207 | 7.82 | S100B-mediated increase of phosphorylation of Ser281 and Thr444 (immunoblot with phosphospecific antibodies) [1]: the T74A point mutation abolished the S100B-mediated increase of phosphorylation for both Ser281 and Thr444 residues without affecting the intrinsic NDR1 autophosphorylation
3 | GST-NDR1 T444A | 0.241 | 3.97 | 
4 | GST-NDR1 kinase dead (K118A) | 0.0064 | 0.222 | 
5 | GST-NDR1 wild type | 0.351 | 21.3 | increase in autophosphorylation [1]: an approximate 2-fold increase in autophosphorylation (on both Ser281 and Thr444); increase in kinase activity [1]: about a 5-fold increase in kinase activity; phosphorylation on Ser281 and Thr444 (immunoblot with phosphospecific antibodies) [1]: Ca2+/S100B was found to enhance phosphorylation on both Ser281 and Thr444
6 | GST-NDR2 |  |  | rate of NDR2 autophosphorylation [1]: increases the rate of NDR2 autophosphorylation by ˜2-fold after 4 hours of incubation; specific NDR activity [1]: stimulates the specific NDR activity in a concentration dependent manner up to ˜4-fold
7 | HA-tagged NDR1 wild type |  |  | NDR autophosphorylation activity (32P, SDS PAGE, phosphoimager) [2]: Addition of GST-hMOB1 to HA-NDR kinase reactions stimulated NDR autophosphorylation activity; OA stimulated NDR kinase activity (peptide kinase assay of 12CA5 immunoprecipitates) [3]: 2 fold and 3 fold
